Earlier results on 1 substance are cited in article PMC2884013.

The series addresses Glu78 (UniProt position 78, RISTVEHLNAA). Kind of series: kinetics. To be noted: Zn2+-bound wild-type enzyme.

Usually pKa stands for the pH at which an ionisable group is half protonated. As for “UDP-3-O-(R-3-hydroxymyristoyl)-N-acetylglucosamine deacetylase (LpxC, EcLpxC) (Escherichia coli)”, the pKa is 6.2 ± 0.2.
